# Laboratory results from patent publication US20210380703A1 (RIGEL PHARMACEUTICALS, published 2021).
# Experiments:
# [1] = target: human ACVR2A (human, UniProt P27037 20-135, limits assumed); experiment: ELISA
# How it was run: (§1)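 Monoclonal antibodies were first applied to human or mouse ACVR2A, alongside biotinylated goat anti-human kappa light chain (positive control) and human Fc (negative control); binding was then determined by ELISA.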
# [2] = target: mouse ACVR2A (mouse, UniProt P27038 20-135, limits assumed); experiment: ELISA
# mouse ACVR2A, sequence (P27038 20-135 limits assumed): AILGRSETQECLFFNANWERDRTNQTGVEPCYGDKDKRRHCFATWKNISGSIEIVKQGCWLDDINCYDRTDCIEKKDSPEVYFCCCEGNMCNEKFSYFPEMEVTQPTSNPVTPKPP
# How it was run: as §1
# [3] = target: T1, biotinylated goat anti-human kappa light chain; experiment: ELISA; positive control
# T1 construct: Positive control of the ELISA
# How it was run: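 mAb binding by ELISA; antigens: hu ACVR2A, mu ACVR2A; pos ctrl biotinylated goat anti-hu kappa LC; neg ctrl hu Fc.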
# Also: test concentration or dose not given here.
# human ACVR2A, sequence (P27037 20-135 limits assumed): as the sequence (P27038 20-135 limits assumed) above, with R20K, I73V counted along it
Binder,optical density [1] [OD],optical density [2] [OD],optical density [3] [OD]
"368_C06 (antibody, V domains shown, VH/VL only) VH: EVQLLESGGGLVQPGGSLRLSCAASGFTFDSYSMNWVRQAPGKGLEWVAGINYNGGYKSYADSVKGRFTISRDNSKNTLYLQMNSLRAEDTAVYYCARSATWHDTHLDYWGQGTLVTVSS VL: not shown",0.738,1.03,3.52
"368_D10 (antibody, V domains shown, VH/VL only) VH: EVQLLESGGGLVQPGGSLRLSCAASGFTFDSYGMNWVRQAPGKGLEWVAGINYNSGYTSYADSVKGRFTISRDNSKNTLYLQMNSLRAEDTAVYYCARSATWHDTALDYWGQGTLVTVSS VL: DIQMTQSPSSLSASVGDRVTITCRASQSILSYLNWYQQKPGKAPKLVIYAATSRASGVPSRFSGSGSGTDFTLTISSLQPEDFATYYCQQSYDSPLTFGGGTKVEIK",2.25,2.45,3.26
"368_E11 (antibody, V domains shown, VH/VL only) VH: EVQLLESGGGLVQPGGSLRLSCAASGFTFDSYGMHWVRQAPGKGLEWVANINYNGGYTSYADSVKGRFTISRDNSKNTLYLQMNSLRAEDTAVYYCARSATWHDTHLDYWGQGTLVTVSS VL: DIQMTQSPSSLSASVGDRVTITCRASQSIISYVNWYQQKPGKAPKLLIYAATSRHSGVPSRFSGSGSGTDFTLTISSLQPEDFATYYCQQSYELPLTFGGGTKVEIK",2.57,2.92,3.73
"368_F12 (antibody, V domains shown, VH/VL only) VH: EVQLLESGGGLVQPGGSLRLSCAASGFTFDDYSMNWVRQAPGKGLEWVASINYNSGYKSYADSVKGRFTISRDNSKNTLYLQMNSLRAEDTAVYYCARSATWHDTHLDYWGQGTLVTVSS VL: DIQMTQSPSSLSASVGDRVTITCRASQSIVTYLNWYQQKPGKAPKLVIYAATSLASGVPSRFSGSGSGTDFTLTISSLQPEDFATYYCQQSYDLPLTFGGGTKVEIK",1.69,1.7,3.52
"368_G05 (antibody, V domains shown, VH/VL only) VH: EVQLLESGGGLVQPGGSLRLSCAASGFTFDSYSMNWVRQAPGKGLEWVAGINYNGGYTSYADSVKGRFTISRDNSKNTLYLQMNSLRAEDTAVYYCARSATWHDTHLDYWGQGTLVTVSS VL: DIQMTQSPSSLSASVGDRVTITCRASQSILTYVNWYQQKPGKAPKLLIYAATSLHSGVPSRFSGSGSGTDFTLTISSLQPEDFATYYCQQSYNTPLTFGGGTKVEIK",2.17,2.42,3.35
"368_G09 (antibody, V domains shown, VH/VL only) VH: EVQLLESGGGLVQPGGSLRLSCAASGFTFDSYGMHWVRQAPGKGLEWVANINYNGGYTSYADSVKGRFTISRDNSKNTLYLQMNSLRAEDTAVYYCARSATWHDTHLDYWGQGTLVTVSS VL: DIQMTQSPSSLSASVGDRVTITCRASQSIVSYLNWYQQKPGKAPKLVIYAATSRASGVPSRFSGSGSGTDFTLTISSLQPEDFATYYCQQSYDTPLTFGGGTKVEIK",2.44,2.81,3.62
"368_H01 (antibody, V domains shown, VH/VL only) VH: EVQLLESGGGLVQPGGSLRLSCAASGFTFSSYSMNWVRQAPGKGLEWVAGINYNSGYKSYADSVKGRFTISRDNSKNTLYLQMNSLRAEDTAVYYCARSATWHDTHLDYWGQGTLVTVSS VL: DIQMTQSPSSLSASVGDRVTITCRASQSILSYLNWYQQKPGKAPKLLIYATTSLASGVPSRFSGSGSGTDFTLTISSLQPEDFATYYCQQSYDNPLTFGGGTKVEIK",3.03,3.14,3.69
"368_H07 (antibody, V domains shown, VH/VL only) VH: EVQLLESGGGLVQPGGSLRLSCAASGFTFSSYGMHWVRQAPGKGLEWVASINYNSGYTSYADSVKGRFTISRDNSKNTLYLQMNSLRAEDTAVYYCARSATWHDTHLDYWGQGTLVTVSS VL: DIQMTQSPSSLSASVGDRVTITCRASQSILSYLNWYQQKPGKAPKLLIYAATSRASGVPSRFSGSGSGTDFTLTISSLQPEDFATYYCQQSYENPLTFGGGTKVEIK",2.71,2.86,3.55
"368_H12 (antibody, V domains shown, VH/VL only) VH: EVQLLESGGGLVQPGGSLRLSCAASGFTFDSYSMNWVRQAPGKGLEWVASINYNSGYKGYADSVKGRFTISRDNSKNTLYLQMNSLRAEDTAVYYCARSATWHDTHLDYWGQGTLVTVSS VL: DIQMTQSPSSLSASVGDRVTITCRASQSIVTYLNWYQQKPGKAPKLLIYAATSRASGVPSRFSGSGSGTDFTLTISSLQPEDFATYYCQQSYESPLTFGGGTKVEIK",2.64,2.69,3.57
"369_A05 (antibody, V domains shown, VH/VL only) VH: EVQLLESGGGLVQPGGSLRLSCAASGFTFSSYSMNWVRQAPGKGLEWVAGINYNGGYTGYADSVKGRFTISRDNSKNTLYLQMNSLRAEDTAVYYCARSATWHDTHLDYWGQGTLVTVSS VL: DIQMTQSPSSLSASVGDRVTITCRASQSILTYVNWYQQKPGKAPKLVIYAATSRASGVPSRFSGSGSGTDFTLTISSLQPEDFATYYCQQSYESPLTFGGGTKVEIK",3.29,3.25,3.48
"369_A10 (antibody, V domains shown, VH/VL only) VH: EVQLLESGGGLVQPGGSLRLSCAASGFTFDSYSMNWVRQAPGKGLEWVAGINYNSGYTGYADSVKGRFTISRDNSKNTLYLQMNSLRAEDTAVYYCARSATWHDTHLDYWGQGTLVTVSS VL: DIQMTQSPSSLSASVGDRVTITCRASQSILSYLNWYQQKPGKAPKLLIYAATSRASGVPSRFSGSGSGTDFTLTISSLQPEDFATYYCQQSYELPLTFGGGTKVEIK",3.38,3.14,3.41
"369_B02 (antibody, V domains shown, VH/VL only) VH: EVQLLESGGGLVQPGGSLRLSCAASGFTFDSYSMNWVRQAPGKGLEWVSGINYNGGYKSYADSVKGRFTISRDNSKNTLYLQMNSLRAEDTAVYYCARSATWHDTHLDYWGQGTLVTVSS VL: DIQMTQSPSSLSASVGDRVTITCRASQSILSYLNWYQQKPGKAPKLVIYAATSRASGVPSRFSGSGSGTDFTLTISSLQPEDFATYYCQQSYNLPLTFGGGTKVEIK",3.4,3.55,3.52
"369_B09 (antibody, V domains shown, VH/VL only) VH: EVQLLESGGGLVQPGGSLRLSCAASGFTFDSYGMHWVRQAPGKGLEWVASINYNGGYTSYADSVKGRFTISRDNSKNTLYLQMNSLRAEDTAVYYCARSATWHDTHLDYWGQGTLVTVSS VL: DIQMTQSPSSLSASVGDRVTITCRASQSILTYLNWYQQKPGKAPKLLIYAATSRASGVPSRFSGSGSGTDFTLTISSLQPEDFATYYCQQSYENPLTFGGGTKVEIK",1.62,1.58,2.22
"369_B12 (antibody, V domains shown, VH/VL only) VH: EVQLLESGGGLVQPGGSLRLSCAASGFTFDSYSMNWVRQAPGKGLEWVSGINYNGGYKSYADSVKGRFTISRDNSKNTLYLQMNSLRAEDTAVYYCARSATWHDTHLDYWGQGTLVTVSS VL: DIQMTQSPSSLSASVGDRVTITCRASQSILTYVNWYQQKPGKAPKLLIYATTSLASGVPSRFSGSGSGTDFTLTISSLQPEDFATYYCQQSYDSPLTFGGGTKVEIK",2.67,2.76,3.56
"369_C10 (antibody, V domains shown, VH/VL only) VH: EVQLLESGGGLVQPGGSLRLSCAASGFTFSSYSMNWVRQAPGKGLEWVANINYNGGYTSYADSVKGRFTISRDNSKNTLYLQMNSLRAEDTAVYYCARSATWHDTALDYWGQGTLVTVSS VL: DIQMTQSPSSLSASVGDRVTITCRASQSIVTYLNWYQQKPGKAPKLLIYAATSLHSGVPSRFSGSGSGTDFTLTISSLQPEDFATYYCQQSDSLPLTFGGGTKVEIK",2.48,2.46,3.37
"369_D11 (antibody, V domains shown, VH/VL only) VH: EVQLLESGGGLVQPGGSLRLSCAASGFTFSSYGMHWVRQAPGKGLEWVASINYNGGYTSYADSVKGRFTISRDNSKNTLYLQMNSLRAEDTAVYYCARSATWHDTHLDYWGQGTLVTVSS VL: DIQMTQSPSSLSASVGDRVTITCRASQSILTYLNWYQQKPGKAPKLVIYAATSLASGVPSRFSGSGSGTDFTLTISSLQPEDFATYYCQQSDELPLTFGGGTKVEIK",2.99,2.99,3.45
"369_E10 (antibody, V domains shown, VH/VL only) VH: EVQLLESGGGLVQPGGSLRLSCAASGFTFSSYSMNWVRQAPGKGLEWVSNINYNGGYKSYADSVKGRFTISRDNSKNTLYLQMNSLRAEDTAVYYCARSATWHDTALDYWGQGTLVTVSS VL: DIQMTQSPSSLSASVGDRVTITCRASQSILSYVNWYQQKPGKAPKLVIYAATSRASGVPSRFSGSGSGTDFTLTISSLQPEDFATYYCQQSYDLPLTFGGGTKVEIK",3.36,3.53,3.59
"369_F07 (antibody, V domains shown, VH/VL only) VH: EVQLLESGGGLVQPGGSLRLSCAASGFTFDSYSMNWVRQAPGKGLEWVAGINYNGGYKSYADSVKGRFTISRDNSKNTLYLQMNSLRAEDTAVYYCARSATWHDTHLDYWGQGTLVTVSS VL: DIQMTQSPSSLSASVGDRVTITCRASQSILSYVNWYQQKPGKAPKLVIYAATSRASGVPSRFSGSGSGTDFTLTISSLQPEDFATYYCQQSYESPLTFGGGTKVEIK",3.43,3.43,3.47
"369_F12 (antibody, V domains shown, VH/VL only) VH: EVQLLESGGGLVQPGGSLRLSCAASGFTFSSYSMNWVRQAPGKGLEWVASINYNSGYKSYADSVKGRFTISRDNSKNTLYLQMNSLRAEDTAVYYCARSATWHDTHLDYWGQGTLVTVSS VL: DIQMTQSPSSLSASVGDRVTITCRASQSIISYLNWYQQKPGKAPKLLIYAVTSLASGVPSRFSGSGSGTDFTLTISSLQPEDFATYYCQQSYENPLTFGGGTKVEIK",2.73,2.82,3.6
